# Patent US9708413B2, “Glycosylated linker, compound containing glycosylated linker moiety and physiologically active substance moiety or salt thereof, and methods for producing said compound or salt thereof” (Glytech, Inc., priority 2012, dated 2017)
# Several values for one entry are separate records, joined by “and”; a condition that tells them apart may be missing. Equal values may be shown once. Read-outs that look alike come from different tables or passages of the source.
# What was measured:
# physchem = assay: physchem
# Method: To each microtube, 30 μL of a 0.1% aqueous TFA solution was added. These microtubes were shaken at 25° C. for 15 minutes and then centrifuged at 16100×g at 25° C. for 10 minutes. Subsequently, the absorbance of the supernatant at 280 nm was measured in each of these microtubes.
# Then, three of these tubes were used in amino acid composition analysis to determine sample contents. […] This absorbance at 280 nm was divided by the concentration determined in the amino acid composition analysis to determine the molar absorption coefficient.
# The molar absorption coefficient εM of the HER28-16 peptide (SEQ ID NO: 15) at 280 nm was calculated according to the following expression (C. N. Pace et al., Prot. Sci., 1995, 4, pp. 2411-2423): εM=Trp×5500+Tyr×1490+Cystine×125[A280/mol/cm]
# wherein Trp represents the number of tryptophan residues, Tyr represents the number of tyrosine residues, and Cystine represents the number of disulfide bonds.
# [1] = Autocatalytic cleavage of the glycosylated linker moiety in aqueous solution, traced by HPLC (elimination half-life)
# Method: To each sampled solution, a 0.5% aqueous TFA solution (28 μL) was added, and this solution was then frozen. The obtained solution was dissolved immediately before HPLC analysis, and a 50 μL aliquot thereof was injected and analyzed by HPLC [column: SHISEIDO CAPCELL PAK C18 UG-120 (5 μm), φ4.6×250 mm, flow rate: 0.7 mL/min, eluent A: 0.1% TFA in water, eluent B: 0.09% TFA/10% water/90% acetonitrile, gradient A:B=77:23→50:50 (20 min) linear concentration gradient elution]. The compound was detected using a diode array detector with a detection wavelength set to 220 nm.
# [2] = PBS solution, pH 7.4, Elimination half-life, PBS (pH 7.4), 25° C.
# [3] = PBS solution, pH 7.4, Elimination half-life, PBS (pH 7.4), 37° C.
# [4] = acetate buffer solution, pH 4, Elimination half-life, Acetate buffer solution (pH 4.0), 25° C.
# [5] = acetate buffer solution, pH 4, Elimination half-life, Acetate buffer solution (pH 4.0), 37° C.
Structure (SMILES),"half-life [1, 2] [h]","half-life [1, 3] [h]","half-life [1, 4] [h]","half-life [1, 5] [h]",other results
"CC(C)C[C@H](NC(=O)[C@H](CC(C)C)NC(=O)[C@H](C)NC(=O)[C@H](CC(C)C)NC(=O)[C@H](CC(C)C)NC(=O)[C@H](CC(C)C)NC(=O)CNC(=O)[C@H](Cc1c[nH]c2ccccc12)NC(=O)[C@@H](N)CCCNC(=N)N)C(=O)O [HER28-16, reference compound]",–,–,–,–,solubility thermodynamic at 15 min (physchem): 210 µg/mL and 200 µM
"CC(=O)N[C@@H]1[C@@H](O)[C@H](O[C@@H]2O[C@H](CO)[C@@H](O[C@@H]3O[C@H](CO[C@H]4O[C@H](CO)[C@@H](O)[C@H](O)[C@@H]4O[C@@H]4O[C@H](CO)[C@@H](O[C@@H]5O[C@H](CO)[C@H](O)[C@H](O)[C@H]5O)[C@H](O)[C@H]4NC(C)=O)[C@@H](O)[C@H](O[C@H]4O[C@H](CO)[C@@H](O)[C@H](O)[C@@H]4O[C@@H]4O[C@H](CO)[C@@H](O[C@@H]5O[C@H](CO)[C@H](O)[C@H](O)[C@H]5O)[C@H](O)[C@H]4NC(C)=O)[C@@H]3O)[C@H](O)[C@H]2NC(C)=O)[C@@H](CO)O[C@H]1NC(=O)CC(N)C(=O)N1CCN(CCNC(=O)c2ccccc2C(=O)N[C@@H](Cc2ccc(O)cc2)C(=O)N[C@@H](Cc2ccccc2)C(=O)N2CCC[C@H]2C(=O)NCC(=O)N[C@@H](CCC(N)=O)C(=O)N[C@@H](Cc2ccccc2)C(=O)N[C@@H](C)C(=O)N[C@@H](Cc2ccccc2)C(=O)N[C@@H](CO)C(=O)O)CC1 (stereo partly shown) [compound 1, glycosylated (Asn (asialo)-type) linker-chemerin 9 conjugate]",4.3,1.2,16,4.4,"half-life ([1]; PBS solution, pH 7.4, Elimination half-life, PBS (pH 7.4), 4° C.): 43.1 h; half-life ([1]; acetate buffer solution, pH 4, Elimination half-life, Acetate buffer solution (pH 4.0), 4° C.): 250 h; half-life ([1]; water, Elimination half-life (Reference), in water, 4° C.): 221 h"
"CC(=O)N[C@@H]1[C@@H](O)[C@H](O)[C@@H](CO)O[C@H]1NC(=O)CSC[C@H](N)C(=O)N1CCN(CCNC(=O)c2ccccc2C(=O)N[C@@H](Cc2ccc(O)cc2)C(=O)N[C@@H](Cc2ccccc2)C(=O)N2CCC[C@H]2C(=O)NCC(=O)N[C@@H](CCC(N)=O)C(=O)N[C@@H](Cc2ccccc2)C(=O)N[C@@H](C)C(=O)N[C@@H](Cc2ccccc2)C(=O)N[C@@H](CO)C(=O)O)CC1 [compound 4, glycosylated (Cys (GlcNAc)-type) linker-chemerin 9 conjugate]",–,1.4,–,4.3,–
"CC(=O)N[C@@H]1[C@@H](O)[C@H](O[C@@H]2O[C@H](CO)[C@@H](O[C@@H]3O[C@H](CO[C@H]4O[C@H](CO)[C@@H](O)[C@H](O)[C@@H]4O[C@@H]4O[C@H](CO)[C@@H](O[C@@H]5O[C@H](CO)[C@H](O)[C@H](O)[C@H]5O)[C@H](O)[C@H]4NC(C)=O)[C@@H](O)[C@H](O[C@H]4O[C@H](CO)[C@@H](O)[C@H](O)[C@@H]4O[C@@H]4O[C@H](CO)[C@@H](O[C@@H]5O[C@H](CO)[C@H](O)[C@H](O)[C@H]5O)[C@H](O)[C@H]4NC(C)=O)[C@@H]3O)[C@H](O)[C@H]2NC(C)=O)[C@@H](CO)O[C@H]1NC(=O)CSCC(N)C(=O)N1CCN(CCNC(=O)c2ccccc2C(=O)N[C@@H](Cc2ccc(O)cc2)C(=O)N[C@@H](Cc2ccccc2)C(=O)N2CCC[C@H]2C(=O)NCC(=O)N[C@@H](CCC(N)=O)C(=O)N[C@@H](Cc2ccccc2)C(=O)N[C@@H](C)C(=O)N[C@@H](Cc2ccccc2)C(=O)N[C@@H](CO)C(=O)O)CC1 (stereo partly shown) [compound 5, glycosylated (Cys (asialo)-type) linker-chemerin 9 conjugate]",–,1.3,–,4.5,–
"CC(=O)N[C@@H]1[C@@H](O)[C@H](O[C@@H]2O[C@H](CO)[C@@H](O[C@@H]3O[C@H](CO[C@H]4O[C@H](CO)[C@@H](O)[C@H](O)[C@@H]4O[C@@H]4O[C@H](CO)[C@@H](O[C@@H]5O[C@H](CO)[C@H](O)[C@H](O)[C@H]5O)[C@H](O)[C@H]4NC(C)=O)[C@@H](O)[C@H](O[C@H]4O[C@H](CO)[C@@H](O)[C@H](O)[C@@H]4O[C@@H]4O[C@H](CO)[C@@H](O[C@@H]5O[C@H](CO)[C@H](O)[C@H](O)[C@H]5O)[C@H](O)[C@H]4NC(C)=O)[C@@H]3O)[C@H](O)[C@H]2NC(C)=O)[C@@H](CO)O[C@H]1NC(=O)CC(NC(=O)OCC1c2ccccc2-c2ccccc21)C(=O)N1CCN(CCNC(=O)c2ccccc2C(=O)N[C@@H](Cc2ccc(O)cc2)C(=O)N[C@@H](Cc2ccccc2)C(=O)N2CCC[C@H]2C(=O)NCC(=O)N[C@@H](CCC(N)=O)C(=O)N[C@@H](Cc2ccccc2)C(=O)N[C@@H](C)C(=O)N[C@@H](Cc2ccccc2)C(=O)N[C@@H](CO)C(=O)O)CC1 (stereo partly shown) [compound 7, glycosylated (Fmoc-Asn (asialo)-type) linker-chemerin 9 conjugate]",–,2.6,–,12.2,–
"CC(=O)N[C@@H]1[C@@H](O)[C@H](O[C@@H]2O[C@H](CO)[C@@H](O[C@@H]3O[C@H](CO[C@H]4O[C@H](CO)[C@@H](O)[C@H](O)[C@@H]4O[C@@H]4O[C@H](CO)[C@@H](O[C@@H]5O[C@H](CO)[C@H](O)[C@H](O)[C@H]5O)[C@H](O)[C@H]4NC(C)=O)[C@@H](O)[C@H](O[C@H]4O[C@H](CO)[C@@H](O)[C@H](O)[C@@H]4O[C@@H]4O[C@H](CO)[C@@H](O[C@@H]5O[C@H](CO)[C@H](O)[C@H](O)[C@H]5O)[C@H](O)[C@H]4NC(C)=O)[C@@H]3O)[C@H](O)[C@H]2NC(C)=O)[C@@H](CO)O[C@H]1NC(=O)CC(N)C(=O)N1CCN(CCNC(=O)c2c(Cl)c(Cl)c(Cl)c(Cl)c2C(=O)N[C@@H](Cc2ccc(O)cc2)C(=O)N[C@@H](Cc2ccccc2)C(=O)N2CCC[C@H]2C(=O)NCC(=O)N[C@@H](CCC(N)=O)C(=O)N[C@@H](Cc2ccccc2)C(=O)N[C@@H](C)C(=O)N[C@@H](Cc2ccccc2)C(=O)N[C@@H](CO)C(=O)O)CC1 (stereo partly shown) [compound 10, glycosylated (Asn (asialo)-tetrachlorophthaloyl-type) linker-chemerin 9 conjugate]",1.1,0.255,4.5,1.3,–
"CC(=O)N[C@@H]1[C@@H](O)[C@H](O[C@@H]2O[C@H](CO)[C@@H](O[C@@H]3O[C@H](CO[C@H]4O[C@H](CO)[C@@H](O)[C@H](O)[C@@H]4O[C@@H]4O[C@H](CO)[C@@H](O[C@@H]5O[C@H](CO)[C@H](O)[C@H](O)[C@H]5O)[C@H](O)[C@H]4NC(C)=O)[C@@H](O)[C@H](O[C@H]4O[C@H](CO)[C@@H](O)[C@H](O)[C@@H]4O[C@@H]4O[C@H](CO)[C@@H](O[C@@H]5O[C@H](CO)[C@H](O)[C@H](O)[C@H]5O)[C@H](O)[C@H]4NC(C)=O)[C@@H]3O)[C@H](O)[C@H]2NC(C)=O)[C@@H](CO)O[C@H]1NC(=O)CC(N)C(=O)N1CCN(CCNC(=O)c2ccccc2C(=O)N[C@@H](CCCNC(=N)N)C(=O)N[C@@H](Cc2c[nH]c3ccccc23)C(=O)NCC(=O)N[C@@H](CC(C)C)C(=O)N[C@@H](CC(C)C)C(=O)N[C@@H](CC(C)C)C(=O)N[C@@H](C)C(=O)N[C@@H](CC(C)C)C(=O)N[C@@H](CC(C)C)C(=O)O)CC1 (stereo partly shown) [compound 11, glycosylated (Asn (asialo)-type) linker-HER28-16 conjugate]",8.3,2.6,21.4,6.2,"solubility at 15 minutes (physchem): > 38 mM; Solubility (physchem; 0.1% aqueous TFA solution, 25° C., listed as Glycosylated linker-HER28-16 conjugate (compound 11)): >116 mg/mL; solubility at 15 minutes (physchem; Solubility (molar concentration), 0.1% aqueous TFA solution, 25° C.): ≥ 38 mM"
